Our source for the self-cleavage values is the RNAGym collection of RNA variant scans (doi:10.7554/elife.80360).

To fix the notation:
B1: HDV Ribozyme (parent)
chain: GGCCGGCAUGGUCCCAGCCUCCUCGCUGGCGCCGGCUGGGCAACAUUCCGAGGGGACCGUCCCCUCGGUAAUGGCGAAUGGGACCCA

The variants in the data set derive from B1. The data set can be described thus: self-cleavage, relative activity (ratio to wild type); higher = more cleavage; co-transcriptional.
For the variant G31U U46C, the self-cleavage came to 0.306.
With C32G G35A the figure was 0.154.
With C32U G59U the figure was 0.795; with C32U G59A, 0.963; with C32G C62G, 0.277.
With C32G C62U the figure was 0.117; with C32G C62A, 0.148.
With C32G C64U, the self-cleavage was determined as 0.109.
With G31U U47A the figure was 0.406.
With C32A G59U, the self-cleavage came to 0.095.
For the variant G31U U60G, the self-cleavage was 0.212.
With G31U U60A the figure was 0.379; with G31U U60C, 0.639.
For the variant C32A C48A, the self-cleavage turned out to be 0.116.
With C32A A87C the figure was 0.129; with C33A G34A, 0.166; with C32G U47C, 0.0852.
With C32A A71G the figure was 0.128; with C32U U46C, 0.554; with C32U U46G, 0.646.
Take C32A G34C: the self-cleavage was determined as 0.208.
With C32A G34A the figure was 0.032.
With C32A G34U the figure was 0.0791; with C32A A43G, 0.119; with C32A A43U, 0.108.
With C32A A43C the figure was 0.162.
For the variant G31U G80U, the self-cleavage amounted to 0.0675.
On to G31U G80A, for which the self-cleavage amounted to 0.0519.
With C32A G39C the figure was 0.166.
With C32A G39U the figure was 0.237; with C32U G35A, 0.326; with C32A A83U, 0.
With C32U G80C the figure was 0.132.
Consider C32U G80A, for which the self-cleavage amounted to 0.256.
With C33A G76A the figure was 0.228.
Regarding C32U C33G, the self-cleavage turned out to be 0.117.
As to C32U C33A, the self-cleavage came out at 0.161.
With C32U C33U the figure was 0.166; with C32U A83U, 0.456.
With C32U U65C the figure was 0.91; with C32U U65A, 1.08.
With C32U U65G the figure was 0.956; with C32U C61A, 0.841.
Turning to C32U C61U, the self-cleavage was 0.817.
With C32A U65A the figure was 0.309; with C32A U65C, 0; with C32A G67C, 0.154.
Take C32A G67A: the self-cleavage was 0.211.
With C32A G76C the figure was 0.192; with C32A G76A, 0.214.
In the case of C32A G76U, the self-cleavage is 0.302.
With C32A A70C the figure was 0.101.
With G31U U72A the figure was 0.141; with G31U U72G, 0.128; with C32G A45C, 0.0707.
With C32U U72A the figure was 0.692.
C32U U72G: the self-cleavage worked out at 0.494.
With C32A G40U the figure was 0.22.
With C32A G40C the figure was 0.134.
With C32G A87C the figure was 0.0545.
For the variant C32G A87U, the self-cleavage worked out at 0.135.
With C32G A87G the figure was 0.0665.
As to C32U A70G, the self-cleavage is 0.85.
As for C32U A70C, the self-cleavage was found to be 0.68.
With C32U A70U the figure was 0.892; with C33A C61U, 0.265; with C33A C61G, 0.237.
With C33A C64A the figure was 0.339; with C33A C64U, 0.086.
In the case of C33A C64G, the self-cleavage is 0.289.
C32A U46A: the self-cleavage came out at 0.185.
On to C32U G81U, for which the self-cleavage is 0.185.
As for C32U G81A, the self-cleavage was found to be 0.158.
For the variant C32U G55C, the self-cleavage amounted to 0.866.
With C32U G55U the figure was 0.935.
With C33A G38A the figure was 0.0386; with C33A G38U, 0.153.
Turning to C32G C36U, the self-cleavage was found to be 0.111.
With C33A A45C the figure was 0.133; with C33A A45U, 0.232.
With C32G A71C the figure was 0.
With C32G A71G, the self-cleavage is 0.0415.
With C32U G50C the figure was 0.764.
With G31U U65G the figure was 0.383; with G31U U65A, 0.318; with C32U C85A, 0.849.
With C32U C85G the figure was 0.831.
Turning to C32G C41U, the self-cleavage came out at 0.119.
On to C33A G68C, for which the self-cleavage turned out to be 0.0449.
With C32G U72G the figure was 0.0519; with C33A G59U, 0.338.
With C33A G59C the figure was 0.521; with C33A A77C, 0.0707; with C33A A77G, 0.104.
C33A A77U: the self-cleavage is 0.0923.
In the case of C33A A71G, the self-cleavage turned out to be 0.289.
With C33A A71U the figure was 0.0282.
With G31U G82U the figure was 0.0378.
With G31U G82A the figure was 0.185; with C32G G67U, 0.0831; with C32G G67A, 0.16.
On to C32A G53C, for which the self-cleavage came out at 0.0923.
Turning to C32A G53U, the self-cleavage worked out at 0.214.
With C32U G73C the figure was 0.261; with C32U G73U, 0.267.
As to C32U C48U, the self-cleavage is 0.69.
C32U C66G: the self-cleavage was 0.739.
With C32U C66A the figure was 0.991.
With C32G G82A the figure was 0.0997; with C32G G82U, 0.228; with C32A C85A, 0.341.
With C32A C85G the figure was 0.252.
For C33A G73U, the self-cleavage was found to be 0.233.
With C33A G73A the figure was 0.147; with C32A G74A, 0.148.
With C32U A42C the figure was 0.233; with C32G G40C, 0.0755.
With C32G G40A the figure was 0.0831; with C32G A78U, 0.0811.
As to C32G A78G, the self-cleavage came to 0.0536.
With C32G A78C the figure was 0.0665; with C32U C62U, 1.13; with C32U C62A, 0.906.
With C32U G38A the figure was 0.216.
With C32A G54A the figure was 0.212; with C32A G54C, 0.356; with C32G U65G, 0.119.
With C32G A83C, the self-cleavage stood at 0.0346.
In the case of C32G A83G, the self-cleavage stood at 0.
In the case of C33A G53U, the self-cleavage is 0.277.
With C33A G53A the figure was 0.264.
With C32A A51C, the self-cleavage stood at 0.244.
Take C32A A51G: the self-cleavage amounted to 0.162.
With C32A A42U the figure was 0.166; with C32G C49A, 0.
C32U G39A: the self-cleavage was 0.192.
For the variant C33A G67A, the self-cleavage is 0.273.
With C32U C49U the figure was 0.803; with C32G C58A, 0.189.
With C32G C57G the figure was 0.225; with C32A C62A, 0.151; with C32G U60A, 0.131.
With C32U G67U the figure was 0.88; with C32G U37A, 0.293.
As to C33A C84A, the self-cleavage worked out at 0.0811.
With C33A C84U, the self-cleavage came out at 0.193.
With C32U C36G the figure was 0.0923; with C32G A77U, 0.123; with C32G A77G, 0.0475.
With C32G A77C the figure was 0.0536; with C33A A42G, 0.
In the case of C32U C84U, the self-cleavage was found to be 0.763.
With C32U C84G the figure was 0.399.
Consider C33A G39U, for which the self-cleavage was found to be 0.138.
On to C33A G39C, for which the self-cleavage was determined as 0.0678.
With C32G G39A the figure was 0.157; with C32A G80U, 0.0472; with C32A G80C, 0.161.
Take C32A G80A: the self-cleavage turned out to be 0.183.
With C32G A70G the figure was 0.0554; with C32G A70U, 0.032.
Regarding C33A C85U, the self-cleavage turned out to be 0.277.
C33A C85G: the self-cleavage came out at 0.309.
With C32U A56C the figure was 1.12; with C32G A56G, 0.0852; with C32G A56C, 0.0739.
As to C33A G35C, the self-cleavage is 0.133.
